The values below come from patent US20170319674A1.

The assay deals with NY-ESO-1 αβTCR with murinized domain 3 in β-chain, paired with the human TCRα-chain (human). The experiment in a line: cell-based or functional assay.

H57-597 (antibody) showed a percentage of lysis (standard chromium release assay) of 4 fold.
